PMC6512903

Key:
Assay in all cases: SPR
FcγRIIb/c (human) = FcγRIIb/c (human) (UniProt P31994)
FcRn (human) = FcRn (human) (UniProt P55899)
FcγRIa (human) = FcγRIa (human) (UniProt P12314)
FcγRIIIb (human) = FcγRIIIb (human) (UniProt O75015)
FcγRIIIa (V) (human) = FcγRIIIa (V) (human) (UniProt P08637)
FcγRIIIa (F) (human) = FcγRIIIa (F) (human) (UniProt P08637)

Sequence of UniProt P31994 (P31994 43-310): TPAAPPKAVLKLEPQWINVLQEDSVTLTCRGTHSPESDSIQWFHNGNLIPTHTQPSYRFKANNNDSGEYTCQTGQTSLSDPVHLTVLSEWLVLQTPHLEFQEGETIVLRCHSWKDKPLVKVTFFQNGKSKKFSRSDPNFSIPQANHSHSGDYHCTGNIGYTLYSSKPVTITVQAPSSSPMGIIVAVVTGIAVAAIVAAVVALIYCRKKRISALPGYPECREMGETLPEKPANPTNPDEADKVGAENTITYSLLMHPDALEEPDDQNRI
Sequence of UniProt P12314 (P12314 16-374): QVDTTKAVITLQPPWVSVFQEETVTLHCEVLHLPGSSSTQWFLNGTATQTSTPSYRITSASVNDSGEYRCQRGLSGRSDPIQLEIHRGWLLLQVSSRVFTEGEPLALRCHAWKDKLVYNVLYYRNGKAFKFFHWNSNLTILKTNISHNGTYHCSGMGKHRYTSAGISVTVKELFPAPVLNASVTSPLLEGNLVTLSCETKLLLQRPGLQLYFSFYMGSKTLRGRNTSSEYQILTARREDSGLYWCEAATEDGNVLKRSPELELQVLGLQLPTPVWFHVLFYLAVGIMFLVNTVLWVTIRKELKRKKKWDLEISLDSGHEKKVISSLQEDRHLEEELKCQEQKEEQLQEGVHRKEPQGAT
Sequence of UniProt O75015 (O75015 17-200): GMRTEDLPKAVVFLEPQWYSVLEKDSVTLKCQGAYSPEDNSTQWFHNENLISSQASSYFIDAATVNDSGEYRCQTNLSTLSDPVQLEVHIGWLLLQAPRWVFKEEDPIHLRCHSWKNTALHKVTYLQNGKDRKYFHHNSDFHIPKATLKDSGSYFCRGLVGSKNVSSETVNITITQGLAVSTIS

| relative binding activity (KD ratio to a reference), mean of batches (FcγRIIb/c (human)) [%] | relative binding activity (KD ratio to a reference), mean of batches (FcRn (human)) [%] | relative binding activity (KD ratio to a reference), mean of batches (FcγRIa (human)) [%] | relative binding activity (KD ratio to a reference), mean of batches (FcγRIIIb (human)) [%] | relative binding activity (KD ratio to a reference), mean of batches (FcγRIIIa (V) (human)) [%] | relative binding activity (KD ratio to a reference), mean of batches (FcγRIIIa (F) (human)) [%] | Substance |
| --- | --- | --- | --- | --- | --- | --- |
| 99 | 131 |  |  |  |  | CN-rituximab (MabThera, sourced in China but manufactured in Europe) (antibody) |
|  | 121 | 118 | 90 |  |  | EU-rituximab (MabThera, sourced and manufactured in Europe) (antibody) |
| 90 | 113 | 103 |  | 95 | 98 | HLX01 (antibody) |
